The values that follow come from PMC4624332 (Cell, 2015).

In test [1] the target is Tse6_(265-CT) (P. aeruginosa) (UniProt Q9I739). Briefly: ITC. On the technique in general: Isothermal titration calorimetry measures the heat released or taken up as one component is titrated into another.
Test [2] deals with EF-Tu^EC•GDP (E. coli EF-Tu, GDP-bound), purified for ITC (E. coli, UniProt P0CE47 2-393). Briefly: ITC.
Test [3] deals with EF-Tu^PA•GDP (P. aeruginosa EF-Tu, GDP-bound), purified (P. aeruginosa, UniProt P09591 1-397). In words: ITC.
The target in test [4] is C-terminally octa-histidine-tagged Tse6 (full-length toxin) (P. aeruginosa, UniProt Q9I739 1-430). Briefly: negative-stain electron microscopy.

Sequence of EF-Tu^EC•GDP (E. coli EF-Tu, GDP-bound), purified for ITC (P0CE47 2-393): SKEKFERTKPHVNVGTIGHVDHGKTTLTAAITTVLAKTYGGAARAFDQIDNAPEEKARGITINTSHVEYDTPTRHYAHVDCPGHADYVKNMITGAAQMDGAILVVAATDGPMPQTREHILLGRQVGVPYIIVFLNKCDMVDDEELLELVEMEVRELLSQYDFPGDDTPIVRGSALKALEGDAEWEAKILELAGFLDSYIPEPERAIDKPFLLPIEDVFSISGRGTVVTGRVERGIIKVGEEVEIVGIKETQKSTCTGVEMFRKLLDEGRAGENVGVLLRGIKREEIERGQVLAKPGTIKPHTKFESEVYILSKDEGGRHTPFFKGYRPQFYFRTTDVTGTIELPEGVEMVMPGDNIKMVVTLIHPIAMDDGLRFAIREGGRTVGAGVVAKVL
Sequence of EF-Tu^PA•GDP (P. aeruginosa EF-Tu, GDP-bound), purified (P09591 whole entry): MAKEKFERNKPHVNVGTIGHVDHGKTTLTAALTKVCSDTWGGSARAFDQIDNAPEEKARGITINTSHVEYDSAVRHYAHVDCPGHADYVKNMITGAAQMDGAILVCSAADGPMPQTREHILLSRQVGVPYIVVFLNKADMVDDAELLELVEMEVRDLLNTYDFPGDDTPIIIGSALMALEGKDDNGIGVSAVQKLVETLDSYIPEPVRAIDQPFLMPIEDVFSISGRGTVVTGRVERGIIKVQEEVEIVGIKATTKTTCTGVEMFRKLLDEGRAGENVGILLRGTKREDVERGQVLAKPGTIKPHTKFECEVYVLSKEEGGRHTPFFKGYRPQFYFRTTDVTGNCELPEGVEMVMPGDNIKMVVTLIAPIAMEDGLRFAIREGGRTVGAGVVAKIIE

For the molecule “EF-Tu with the antibiotic Aurodox (locked into its GTP-bound conformation) (from UniProt P09591 1-397) (natural protein)”, in test [1], the fold reduction of the affinity with Aurodox against EF-Tu•GDP turned out to be 10 fold.

B1: Tse6_(265-CT) (domain or fragment)
chain: QRRAYLNNKFGRSGNLDHDINYRGNRETAAKFFKSKDIDPADAESYMNGLDFNHPVRVETLAPGKNLWQYQSPGAPQGNWYTLSPRVQPTELGINPMGTNRAANTIEPKVLNSYRTTQKVEVLRSTAAPTDDFWSVKGQSYPAKGGAQQLFSNEKGSFGLLPREGS
For orientation: Kd means the free concentration of one partner at which half of the binding sites on the other are occupied at equilibrium, for simple one-to-one binding. The low end stands for a tighter complex, the high end for a looser complex. For B1, the dissociation constant Kd in test [2] was 81 nM; in test [3], 23 nM.

B2: EagT6, recombinant, in the purified Tse6 complex (natural protein)
chain: MTLYRLHEADLEIPDAWQDQSINIFKLPASGPAREASFVISRDASQGDAPFADYVARQLENAEKQLPGFKLHKRWDINIHGHAAVLLDYQWQREGRDLMLRQVFIERRPAVLITTLTTTPADLPHHEPAWKQAMQTLVPRPTPS
For B2, in test [4], the binding result is on record as “binds”.
